# Experimental data: patent publication US11485987B2, “Methods for inducing bioorthogonal reactivity” (University of Delaware, priority 2015, dated 2022)
# Residue numbers refer to the chain shown, from its start. In names and notes the source's numbering stands.
# B1: APEX2 (SEQ ID NO:1) (Glycine max; A134P/E112K/K14D/W41F) (protein)
# chain: MGKSYPTVSADYQDAVEKAKKKLRGFIAEKRCAPLMLRLAFHSAGTFDKGTKTGGPFGTIKHPAELAHSANNGLDIAVRLLEPLKAEFPILSYADFYQLAGVVAVEVTGGPKVPFHPGREDKPEPPPEGRLPDPTKGSDHLRDVFGKAMGLTDQDIVALSGGHTIGAAHKERSGFEGPWTSNPLIFDNSYFTELLSGEKEGLLQLPSDKALLSDPVFRPLVDKYAADEDAFFADYAEAHQKLSELGFADA
# B2: F41A APEX2 (Glycine max; A134P/E112K/K14D/W41A) (protein)
# chain: B1 chain with F41A
# B3: horseradish peroxidase (HRP) (Armoracia rusticana) (protein)
# chain: QLTPTFYDNSCPNVSNIVRDTIVNELRSDPRIAASILRLHFHDCFVNGCDASILLDNTTSFRTEKDAFGNANSARGFPVIDRMKAAVESACPRTVSCADLLTIAAQQSVTLAGGPSWRVPLGRRDSLQAFLDLANANLPAPFFTLPQLKDSFRNVGLNRSSDLVALSGGHTFGKNQCRFIMDRLYNFSNTGLPDPTLNTTYLQTLRGLCPLNGNLSALVDFDLRTPTIFDNKYYVNLEEQKGLIQSDQELFSSPNATDTIPLVRSFANSTQTFFNAFVEAMDRMGNITPLTGTQGQIRLNCRVVNSNS
# Key:
# Type in all cases: biochemical
# [1] = substrate: CCCCNC(=O)C1=NNC(c2ccccn2)=NN1; assay: Oxidation of DHT by APEX2, UV-Vis initial rates and kinetic parameters; details: pH 7.4, 25.0 °C
# Method: (§1) UV-Vis and fluorescence measurements were conducted in quartz cuvettes. All reactions were conducted in phosphate buffered saline (PBS) containing 100 μM EDTA with a pH=7.4. The PBS was prepared by adding 25 mM phosphate salts (Na2HPO4 and NaH2PO4), 100 mM NaCl, 100 μM EDTA to DI water. EDTA was added to quench free metals that can oxidize DHT. The buffer was pH adjusted to 7.4 using 1 mM HCl and 1 mM NaOH. UV experiments were stirred at 25° C. in a temperature-controlled cuvette holder of the spectrophotometer. Solutions of 15 or 16 were prepared from methanol stock solutions.
# (§2) 15 or 16 (60 μM) from methanol stock solutions was added to PBS containing 100 μM EDTA. After 10s, APEX2 (SEQ ID NO:1) (275 nM) was dosed in and oxidation was monitored at 325 nm for 15 and 285 nm for 16 at 60s intervals (FIG. 10B-C).
# (§3) 16 (15 μM) DHT from methanol stock solutions was added to PBS containing 100 μM EDTA. After 10s, APEX2 (SEQ ID NO:1) (275 nM) or HRP (15 nM) was dosed in and oxidation was monitored at 285 nm at 10s intervals (FIG. 10D)
# (§4) SOD (1 μM) was added to PBS containing 100 μM EDTA. 15 or 16 (60 μM) was added from methanol stock solutions. After 10s, APEX2 (SEQ ID NO:1) or F41A APEX2 (275 nM) was dosed in and oxidation was monitored at 325 nm for 15 and 285 nm for 16 at 60s intervals.
# (§5) The initial rate of oxidation was calculated from the first 100 seconds after APEX2 (SEQ ID NO:1) or F41A APEX2 was added ([…]). In the assays where SOD was added, SOD (1 μM) was added to PBS containing 100 μM EDTA and 15 or 16 was dosed in. 10 seconds later, APEX2 (SEQ ID NO:1) or F41A APEX2 ([…]) was added and the rate of oxidation was calculated from the first 100 seconds after APEX2 (SEQ ID NO:1) or F41A APEX2 ([…]) addition. The initial rate of oxidation was adjusted to background oxidation of DHT in PBS with 100 μM EDTA. Kinetic parameters (Table 2) were determined using GraphPad's Prism 6 software from the data presented below (Table 3-4).
# [2] = substrate: O=C(O)CCCC(=O)Nc1ccc(C2=NNC(c3ccccn3)=NN2)nc1; assay: as above; details: pH 7.4, 25.0 °C
# Method: as §1, §2, §3, §4, §5
# [3] = substrate: CCCCNC(=O)C1=NNC(c2ccccn2)=NN1; assay: Oxidation of DHT by F41A APEX2, UV-Vis initial rates and kinetic parameters; details: other: F41A APEX2 + SOD; pH 7.4; 25.0 °C
# Method: as §1, §4, §5
# [4] = substrate: O=C(O)CCCC(=O)Nc1ccc(C2=NNC(c3ccccn3)=NN2)nc1; assay: as above; details: other: F41A APEX2 + SOD; pH 7.4; 25.0 °C
# Method: as §1, §4, §5
# [5] = substrate: O=C(O)CCC(=O)Nc1ccc(C2=NNC(c3ccccn3)=NN2)nc1; assay: Horseradish peroxidase (HRP) catalyzed oxidation of DHTz to tetrazine; details: other: HRP, peroxide-free, PBS containing EDTA (2.0 mM); pH 7.4; 25.0 °C
# Method: Upon addition of horseradish peroxidase (15 nM) the UV-vis spectrum was monitored every 10 seconds. With 50% conversion after 100 seconds, complete conversion of 3a to 4a is observed after 600 seconds, as evidenced by the decrease in the absorption at 292 nm and increase at 325 nm with an isosbestic point at 303 nm. Similar spectral changes are observed when 3a is electrochemically oxidized to 4a in aqueous solution, or when the oxidation of 3a to 4a is photocatalyzed by methylene blue. […] Methylene blue was considered a particularly attractive sensitizer due to its clinical relevance, low molecular weight, low toxicity, high solubility, and an absorption spectrum (λmax 665 nm) that extends to the near IR. Further, methylene blue has previously been explored for applications in photodynamic therapy based on oxidation of indole-3-acetic acid. Rose bengal (λmax 550 nm), used in a range of biomedical applications, was also identified as an excellent sensitizer. […] Methylene blue (4 μM) also catalyzed the conversion of 3a to 4a in the presence of ambient light, with 47% conversion noted after 2 h. […] The mechanism of photooxidation more likely involves electron transfer and is the subject of ongoing study.
# As a complement to these photocatalyzed reactions, the inventors observed that HRP can efficiently catalyze the oxidation of 3a in the dark at low enzyme concentration (15 nM) (FIG. 4). While HRP typically requires H2O2 as the terminal oxidant, the addition of HRP to a peroxide-free solution of 3a (30 μM) in PBS led to the rapid formation of 4a (FIG. 4, panel B). […]
# Solutions (1 mL) containing 3a (30 μm) in PBS buffer were prepared in a cuvette from stock solutions. Oxidation of 3a to 4a was monitored by recording absorbance at 325 nm every 10 seconds while either hydrogen peroxide (2 mM), HRP (15 nM) or both were added (FIG. 4, panel B). […] The oxidation rate was determined by observing the conversion of 3a to 4a in the first 10 seconds after mixing in HRP (15 nM) and subtracting the background oxidation prior to the addition of HRP.
# [6] = other: APEX2 (SEQ ID NO: 1) + SOD
# [7] = other: APEX2 (SEQ ID NO: 1), no SOD
protein,measurement,setting,value
B1,Km,[1]; [6],17.29 µM
same,kcat,[1]; [6],0.115 s⁻¹
same,kcat/Km,[1]; [6],6662 M⁻¹ s⁻¹
same,Km,[1]; [7],22.61 µM
same,kcat,[1]; [7],0.077 s⁻¹
same,kcat/Km,[1]; [7],3426 M⁻¹ s⁻¹
same,Km,[2]; [6],41.41 µM
same,kcat,[2]; [6],0.247 s⁻¹
same,kcat/Km,[2]; [6],5956 M⁻¹ s⁻¹
same,Km,[2]; [7],47.56 µM
same,kcat,[2]; [7],0.197 s⁻¹
same,kcat/Km,[2]; [7],4134 M⁻¹ s⁻¹
B2,Km,[3],104.6 µM
same,kcat,[3],0.408 s⁻¹
same,kcat/Km,[3],3900 M⁻¹ s⁻¹
same,Km,[4],263 µM
same,kcat,[4],1.72 s⁻¹
same,kcat/Km,[4],6533 M⁻¹ s⁻¹
B3,Km,[5],100 µM
same,kcat,[5],27 s⁻¹
same,kcat/Km,[5],270000 M⁻¹ s⁻¹
